# T1: PUF4 RNA-binding domain (Saccharomyces cerevisiae, UniProt P25339 537-888)
# T1 sequence: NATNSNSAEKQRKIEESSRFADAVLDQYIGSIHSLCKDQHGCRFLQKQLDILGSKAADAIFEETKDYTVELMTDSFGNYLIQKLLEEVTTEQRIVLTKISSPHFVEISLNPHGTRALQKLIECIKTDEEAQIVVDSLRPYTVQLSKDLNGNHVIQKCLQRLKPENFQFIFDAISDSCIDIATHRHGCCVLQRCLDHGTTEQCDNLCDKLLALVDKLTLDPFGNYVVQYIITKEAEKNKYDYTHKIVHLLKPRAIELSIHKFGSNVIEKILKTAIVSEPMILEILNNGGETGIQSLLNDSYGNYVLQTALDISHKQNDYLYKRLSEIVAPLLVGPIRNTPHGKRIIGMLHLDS
# Molecular target: T1, PUF4 RNA-binding domain
# Assay: Mg; RNA-MaP; 20 mM Na-HEPES pH 7.4, 30 mM KOAc, 0.75 mM MgCl2, 0.1% Tween-20, 5% glycerol, 0.1 mg/mL BSA, 2 mM DTT; 25 C; 0.0125-409.6 nM protein
# Details: tags: N-His6-TEV cleaved; C-SNAP kept, Cy3B-labelled; label: tethered on chip by stalled RNA polymerase
row,Binder,Kd [nM]
1,Ie_S2_P3E.2_K3.1_C3.2_H3.1_[+1TTC]_A3.1_F3.1_T3.2 (ssRNA) RNA: UUUGAUUAAUAUGAUAUCGUUCUUUCUCUUUUCGUAUAUAUAUUCUUUCUCGAUAUCAUAUUAAUCUUU,36.5
2,Ie_S2_P3E.2_K3.1_C3.2_H3.1_[+2TCT]_A3.1_F3.1_T3.2 (ssRNA) RNA: UUUGAUUAAUAUGAUAUCGUUCUUUCUCUUGUCUUAUAUAUAUUCUUUCUCGAUAUCAUAUUAAUCUUU,15.5
3,Ie_S2_P3E.2_K3.1_C3.2_H3.1_[+2TTT]_A3.1_F3.1_T3.2 (ssRNA) RNA: UUUGAUUAAUAUGAUAUCGUUCUUUCUCUUGUUUUAUAUAUAUUCUUUCUCGAUAUCAUAUUAAUCUUU,10.7
4,Ie_S2_P3E.2_K3.1_C3.2_H3.1_[+2CTT]_A3.1_F3.1_T3.2 (ssRNA) RNA: UUUGAUUAAUAUGAUAUCGUUCUUUCUCUUGCUUUAUAUAUAUUCUUUCUCGAUAUCAUAUUAAUCUUU,65.6
5,Ie_S2_P3E.2_K3.1_C3.2_H3.1_[+3CTC]_A3.1_F3.1_T3.2 (ssRNA) RNA: UUUGAUUAAUAUGAUAUCGUUCUUUCUCUUGUCUCAUAUAUAUUCUUUCUCGAUAUCAUAUUAAUCUUU,17.3
6,Ie_S2_P3E.2_K3.1_C3.2_H3.1_[+3TTC]_A3.1_F3.1_T3.2 (ssRNA) RNA: UUUGAUUAAUAUGAUAUCGUUCUUUCUCUUGUUUCAUAUAUAUUCUUUCUCGAUAUCAUAUUAAUCUUU,8.9
7,Ie_S2_P3E.2_K3.1_C3.2_H3.1_[+2TTC]_A3.1_F3.1_T3.2 (ssRNA) RNA: UUUGAUUAAUAUGAUAUCGUUCUUUCUCUUGUUCUAUAUAUAUUCUUUCUCGAUAUCAUAUUAAUCUUU,6.23
8,Ie_S2_P3E.2_K3.1_C3.2_H3.1_[+3CCC]_A3.1_F3.1_T3.2 (ssRNA) RNA: UUUGAUUAAUAUGAUAUCGUUCUUUCUCUUGUCCCAUAUAUAUUCUUUCUCGAUAUCAUAUUAAUCUUU,13.5
9,Ie_S2_P3E.2_K3.1_C3.2_H3.1_[+2CTC]_A3.1_F3.1_T3.2 (ssRNA) RNA: UUUGAUUAAUAUGAUAUCGUUCUUUCUCUUGCUCUAUAUAUAUUCUUUCUCGAUAUCAUAUUAAUCUUU,63.2
10,Ie_S2_P3E.2_K3.1_C3.2_H3.1_[+2TCC]_A3.1_F3.1_T3.2 (ssRNA) RNA: UUUGAUUAAUAUGAUAUCGUUCUUUCUCUUGUCCUAUAUAUAUUCUUUCUCGAUAUCAUAUUAAUCUUU,9.73
11,Ic_S2_P3E.1_K3.1_C3.1_H3.1_A3.1_[A6C]_F3.1_[T7C]_T3.1 (ssRNA) RNA: UUUGAUUAAUAUGAUAUCGUUCUUUCUUGUAUCCAUUCUUUCUCGAUAUCAUAUUAAUCUUU,148
12,Ic_S2_P3E.1_K3.1_C3.1_H3.1_A3.1_[A6C]_F3.1_[T7A]_T3.1 (ssRNA) RNA: UUUGAUUAAUAUGAUAUCGUUCUUUCUUGUAUCAAUUCUUUCUCGAUAUCAUAUUAAUCUUU,107
13,Ic_S2_P3E.1_K3.1_C3.1_H3.1_A3.1_[A6T]_F3.1_[T7A]_T3.1 (ssRNA) RNA: UUUGAUUAAUAUGAUAUCGUUCUUUCUUGUAUUAAUUCUUUCUCGAUAUCAUAUUAAUCUUU,56.9
14,Ic_S2_P3E.1_K3.1_C3.1_H3.1_A3.1_[A6T]_F3.1_[T7C]_T3.1 (ssRNA) RNA: UUUGAUUAAUAUGAUAUCGUUCUUUCUUGUAUUCAUUCUUUCUCGAUAUCAUAUUAAUCUUU,114
15,Ie_S2_P3E.2_K3.1_C3.2_H3.1_[+2T]_A3.1_F3.1_T3.2 (ssRNA) RNA: UUUGAUUAAUAUGAUAUCGUUCUUUCUCUUGUUAUAUAUAUUCUUUCUCGAUAUCAUAUUAAUCUUU,8.08
16,Ie_S2_P3E.2_K3.1_C3.2_H3.1_[+4C]_A3.1_F3.1_T3.2 (ssRNA) RNA: UUUGAUUAAUAUGAUAUCGUUCUUUCUCUUGUACUAUAUAUUCUUUCUCGAUAUCAUAUUAAUCUUU,0.5
17,Ie_S2_P3E.2_K3.1_C3.2_H3.1_A3.1_[+5T]_F3.1_T3.2 (ssRNA) RNA: UUUGAUUAAUAUGAUAUCGUUCUUUCUCUUGUAUUAUAUAUUCUUUCUCGAUAUCAUAUUAAUCUUU,1.52
18,Ie_S2_P3E.2_K3.1_C3.2_H3.1_[+2CC]_A3.1_F3.1_T3.2 (ssRNA) RNA: UUUGAUUAAUAUGAUAUCGUUCUUUCUCUUGCCUAUAUAUAUUCUUUCUCGAUAUCAUAUUAAUCUUU,102
19,Ie_S2_P3E.2_K3.1_C3.2_H3.1_[+3TC]_A3.1_F3.1_T3.2 (ssRNA) RNA: UUUGAUUAAUAUGAUAUCGUUCUUUCUCUUGUUCAUAUAUAUUCUUUCUCGAUAUCAUAUUAAUCUUU,12.9
20,Ie_S2_P3E.2_K3.1_C3.2_H3.1_[+2CT]_A3.1_F3.1_T3.2 (ssRNA) RNA: UUUGAUUAAUAUGAUAUCGUUCUUUCUCUUGCUUAUAUAUAUUCUUUCUCGAUAUCAUAUUAAUCUUU,93
21,Ie_S2_P3E.2_K3.1_C3.2_H3.1_[+4CC]_A3.1_F3.1_T3.2 (ssRNA) RNA: UUUGAUUAAUAUGAUAUCGUUCUUUCUCUUGUACCUAUAUAUUCUUUCUCGAUAUCAUAUUAAUCUUU,2.33
22,Ie_S2_P3E.2_K3.1_C3.2_H3.1_[+2TT]_A3.1_F3.1_T3.2 (ssRNA) RNA: UUUGAUUAAUAUGAUAUCGUUCUUUCUCUUGUUUAUAUAUAUUCUUUCUCGAUAUCAUAUUAAUCUUU,14.6

row,Binder,Kd [nM]
1,Ie_S2_P3E.2_K3.1_C3.2_H3.1_[+3CC]_A3.1_F3.1_T3.2 (ssRNA) RNA: UUUGAUUAAUAUGAUAUCGUUCUUUCUCUUGUCCAUAUAUAUUCUUUCUCGAUAUCAUAUUAAUCUUU,34
2,Ie_S2_P3E.2_K3.1_C3.2_H3.1_[+3CT]_A3.1_F3.1_T3.2 (ssRNA) RNA: UUUGAUUAAUAUGAUAUCGUUCUUUCUCUUGUCUAUAUAUAUUCUUUCUCGAUAUCAUAUUAAUCUUU,28.3
3,Ie_S2_P3E.2_K3.1_C3.2_H3.1_[+1CCTC]_A3.1_F3.1_T3.2 (ssRNA) RNA: UUUGAUUAAUAUGAUAUCGUUCUUUCUCUUCCUCGUAUAUAUAUUCUUUCUCGAUAUCAUAUUAAUCUUU,52.3
4,Ie_S2_P3E.2_K3.1_C3.2_H3.1_[+3CCTC]_A3.1_F3.1_T3.2 (ssRNA) RNA: UUUGAUUAAUAUGAUAUCGUUCUUUCUCUUGUCCUCAUAUAUAUUCUUUCUCGAUAUCAUAUUAAUCUUU,62.8
5,Ie_S2_P3E.2_K3.1_C3.2_H3.1_[+1CCCT]_A3.1_F3.1_T3.2 (ssRNA) RNA: UUUGAUUAAUAUGAUAUCGUUCUUUCUCUUCCCUGUAUAUAUAUUCUUUCUCGAUAUCAUAUUAAUCUUU,0.515
6,Ie_S2_P3E.2_K3.1_C3.2_H3.1_[+2CCTC]_A3.1_F3.1_T3.2 (ssRNA) RNA: UUUGAUUAAUAUGAUAUCGUUCUUUCUCUUGCCUCUAUAUAUAUUCUUUCUCGAUAUCAUAUUAAUCUUU,162
7,Ie_S2_P3E.2_K3.1_C3.2_H3.1_[+3CCCT]_A3.1_F3.1_T3.2 (ssRNA) RNA: UUUGAUUAAUAUGAUAUCGUUCUUUCUCUUGUCCCUAUAUAUAUUCUUUCUCGAUAUCAUAUUAAUCUUU,30.4
8,Ie_S2_P3E.2_K3.1_C3.2_H3.1_[+2CTCT]_A3.1_F3.1_T3.2 (ssRNA) RNA: UUUGAUUAAUAUGAUAUCGUUCUUUCUCUUGCUCUUAUAUAUAUUCUUUCUCGAUAUCAUAUUAAUCUUU,62.1
9,Ie_S2_P3E.2_K3.1_C3.2_H3.1_[+3CTCT]_A3.1_F3.1_T3.2 (ssRNA) RNA: UUUGAUUAAUAUGAUAUCGUUCUUUCUCUUGUCUCUAUAUAUAUUCUUUCUCGAUAUCAUAUUAAUCUUU,21.2
10,Ie_S2_P3E.2_K3.1_C3.2_H3.1_[+2CCCT]_A3.1_F3.1_T3.2 (ssRNA) RNA: UUUGAUUAAUAUGAUAUCGUUCUUUCUCUUGCCCUUAUAUAUAUUCUUUCUCGAUAUCAUAUUAAUCUUU,67.5
11,Ie_S2_P3E.2_K3.1_C3.2_H3.1_[+1TCTCT]_A3.1_F3.1_T3.2 (ssRNA) RNA: UUUGAUUAAUAUGAUAUCGUUCUUUCUCUUUCUCUGUAUAUAUAUUCUUUCUCGAUAUCAUAUUAAUCUUU,1.44
12,Ie_S2_P3E.2_K3.1_C3.2_H3.1_[+1CCCTT]_A3.1_F3.1_T3.2 (ssRNA) RNA: UUUGAUUAAUAUGAUAUCGUUCUUUCUCUUCCCUUGUAUAUAUAUUCUUUCUCGAUAUCAUAUUAAUCUUU,1.15
13,Ie_S2_P3E.2_K3.1_C3.2_H3.1_[+2CTCTC]_A3.1_F3.1_T3.2 (ssRNA) RNA: UUUGAUUAAUAUGAUAUCGUUCUUUCUCUUGCUCUCUAUAUAUAUUCUUUCUCGAUAUCAUAUUAAUCUUU,61.8
14,Ie_S2_P3E.2_K3.1_C3.2_H3.1_[+1TTCCT]_A3.1_F3.1_T3.2 (ssRNA) RNA: UUUGAUUAAUAUGAUAUCGUUCUUUCUCUUUUCCUGUAUAUAUAUUCUUUCUCGAUAUCAUAUUAAUCUUU,1.16
15,Ie_S2_P3E.2_K3.1_C3.2_H3.1_[+1CCTCT]_A3.1_F3.1_T3.2 (ssRNA) RNA: UUUGAUUAAUAUGAUAUCGUUCUUUCUCUUCCUCUGUAUAUAUAUUCUUUCUCGAUAUCAUAUUAAUCUUU,1.11
16,Ie_S2_P3E.2_K3.1_C3.2_H3.1_[+3CCCTT]_A3.1_F3.1_T3.2 (ssRNA) RNA: UUUGAUUAAUAUGAUAUCGUUCUUUCUCUUGUCCCUUAUAUAUAUUCUUUCUCGAUAUCAUAUUAAUCUUU,35.7
17,Ie_S2_P3E.2_K3.1_C3.2_H3.1_[+2TTCCT]_A3.1_F3.1_T3.2 (ssRNA) RNA: UUUGAUUAAUAUGAUAUCGUUCUUUCUCUUGUUCCUUAUAUAUAUUCUUUCUCGAUAUCAUAUUAAUCUUU,16.3
18,Ie_S2_P3E.2_K3.1_C3.2_H3.1_[+3CTCTC]_A3.1_F3.1_T3.2 (ssRNA) RNA: UUUGAUUAAUAUGAUAUCGUUCUUUCUCUUGUCUCUCAUAUAUAUUCUUUCUCGAUAUCAUAUUAAUCUUU,76.4
19,Ie_S2_P3E.2_K3.1_C3.2_H3.1_[+2CCTCT]_A3.1_F3.1_T3.2 (ssRNA) RNA: UUUGAUUAAUAUGAUAUCGUUCUUUCUCUUGCCUCUUAUAUAUAUUCUUUCUCGAUAUCAUAUUAAUCUUU,112
20,Ie_S2_P3E.2_K3.1_C3.2_H3.1_[+2TCTCT]_A3.1_F3.1_T3.2 (ssRNA) RNA: UUUGAUUAAUAUGAUAUCGUUCUUUCUCUUGUCUCUUAUAUAUAUUCUUUCUCGAUAUCAUAUUAAUCUUU,21.5
21,Ie_S2_P3E.2_K3.1_C3.2_H3.1_[+3TTCCT]_A3.1_F3.1_T3.2 (ssRNA) RNA: UUUGAUUAAUAUGAUAUCGUUCUUUCUCUUGUUUCCUAUAUAUAUUCUUUCUCGAUAUCAUAUUAAUCUUU,19.1

# From paper PMC9352680, “A comprehensive thermodynamic model for RNA binding by the Saccharomyces cerevisiae Pumilio protein PUF4”
